Assays:
[1] = target: T1, endogenous 14-3-3ζ (YWHAZ) (human (endogenous in A549)), P63104; assay: native gel or EMSA; conditions: remark: other sources report otherwise
T1 chain: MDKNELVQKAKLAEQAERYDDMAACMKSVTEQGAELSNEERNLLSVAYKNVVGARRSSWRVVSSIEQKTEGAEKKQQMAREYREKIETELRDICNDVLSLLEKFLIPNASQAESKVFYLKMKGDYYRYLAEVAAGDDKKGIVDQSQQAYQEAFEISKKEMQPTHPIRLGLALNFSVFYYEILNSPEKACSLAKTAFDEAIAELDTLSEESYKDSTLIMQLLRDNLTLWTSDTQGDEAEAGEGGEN

[2] = target: T2, untagged 14-3-3ζ, overexpressed, P63104; assay: native gel or EMSA; conditions: remark: other sources report otherwise
T2 chain: T1 chain

B1: endogenous 14-3-3ζ (YWHAZ), P63104 1-245 (natural protein)
chain: T1 chain
stoichiometry N [1]: 2

B2: untagged 14-3-3ζ, overexpressed, P63104 1-245 (natural protein)
chain: T1 chain
stoichiometry N [2]: 2

Source: publication PMC7160556
